Source: article PMC3936775, “Differential contribution of basic residues to HIV-1 nucleocapsid protein’s nucleic acid chaperone function and retroviral replication”

Experiments:
[1] = molecular target: HIV-1 NC WT (HIV-1 (NL4-3 isolate)) (UniProt P12493); assay: fluorescence anisotropy; conditions: FA: 20 mM HEPES pH 7.5, 50 mM NaCl, 10 uM TCEP, 5 mM beta-mercaptoethanol, 1 uM zinc acetate, 20 C, 30 min; 20 nM micro-TAR RNA or 10 nM (TG)4 DNA (Table …)
[2] = molecular target: HIV-1 NC WT (HIV-1 (NL4-3 isolate), UniProt P12493 378-432); assay: fluorescence anisotropy; 1 uM zinc acetate; FA: 20 mM HEPES pH 7.5, 50 mM NaCl, 10 uM TCEP, 5 mM beta-mercaptoethanol, 1 uM zinc acetate, 20 C, 30 min; 20 nM micro-TAR RNA or 10 nM (TG)4 DNA (Table 1 footnote: room temperature); conditions: protein: recombinant; label: 5' carboxyfluorescein (FAM); single strand

| Molecule | Kd [1] [nM] | Kd [2] [nM] |
| --- | --- | --- |
| micro-TAR RNA 18-mer | 315 |  |
| TGTGTGTG (ssDNA) [(TG)4 DNA] |  | 5 ± 1 |
